“Also recorded” adds a separate entry of the source.
Assays:
HUVEC = test: Tube formation by HUVEC in collagen gel; assay type: cell-based, human
Experimental: Human Umbilical vein endothelial cells (HUVEC) were obtained by treating fresh human umbilical cord veins with Trypsin-EDTA (1×) (Gibco/Invitrogen) for 20-25 minutes at 37° C. The cells were cultured in a T-25 flask coated with attachment factor (AF), (Cascade Biologics) in RPMI 1640 medium supplemented with 10% FCS, 0.4% BBE, 1% 1-glutamin, 1% penicillin/streptomycin. Primary cultures were detached with warm Trypsin-EDTA and used when confluent at the second or third passage. The cells were maintained in a proliferative state by culturing them in a split ratio 1:2 at an approximate density of the monolayer of about 60-80%. […]
After 2 passages HUVECs were seeded in their culture medium (40×10^3/50 μl/well of a 96-well plate) on a collagen gel (50 μl of collagen I 1.5 mg/ml) prepared by mixing 7.5 volumes of 2 mg/ml collagen (Collagen R; Serva, Heidelberg, Germany), 1 volume of 10× MEM, 1.5 volume of NaHCO3 (15.6 mg/ml) and ˜1 volume of NaOH to adjust the pH to 7.4. […] The assay was performed with a streptavidin antibody used as a control (from 1 ng/ml to 10 μg/ml): The total length of the tube network on the culture surface was quantified at 40× magnification by the METAVUE™ Software (Universal Imaging Corporation). Results from triplicate wells were expressed as mean vessel area per field ±SEM (relative units). […]

human platelets = test: Flow cytometry on human platelets; assay type: binding; conditions: total (CD42) and thrombin-activated (CD62) platelets
Experimental: To avoid platelet activation, human platelets were isolated from plasma of healthy donors using the platelet GelSep kit (Biocytex, Marseille, France) kit according to the guidelines of the manufacturer. Platelets were activated by the addition of thrombin to a final concentration of 0.8 U/ml. To distinguish activated from non-activated platelets double staining was performed with Tie1 antibodies/control antibodies and antibody CD42 (total platelets) or CD62 (activated platelets).
After preparation, platelets were resuspended in buffer 2 of the GelSep kit, 10% heat inactivated human serum (incubation buffer) and incubated for 1 hour. […] Platelets were spun down by centrifugation for 10 min at 611 g. Between incubations platelets were washed twice with Buffer 1 of the GelSep kit. Then, Strepatvidin-R-phycoerythrin together with anti-CD42-PercP or anti-CD62-PercP were incubated for 30 minutes at room temperature in incubation buffer After the last incubation and washing detection of bound antibodies was performed by means of flow cytometry on a FACSscan and Epics Altra (Becton Dickinson, Oxnard, Coulter,) and results analyzed. Cells were gated on SSC and anti-CD42-PercP for the total platelets in case non-activated platelets were used and on SSC and anti-CD62-PercP for the activated platelets. […]

B1: E3: human anti-Tie1 antibody from phage Fab library, reformatted as IgG; HC variable SEQ ID NO:114, LC variable SEQ ID NO:116 (antibody, V domains shown)
VH: EVQLLESGGGLVQPGGSLRLSCAASGFTFSMYGMVWVRQAPGKGLEWVSVISPSGGNTGYADSVKGRFTISRDNSKNTLYLQVNSLRAEDTAVYYCARAPRGYSYGYYYWGQGTLVTVSSASTKGPSVFPLAPSSKSTSGG
VL: DIQMTQSPLSLSASVGDRVTITCRASQGIGHYLAWYQQKPGKVPKLLIYTASTLQSGVPSRFSGSGSGTDFTLTINSLQPEDVATYYCQQFNSYPHTFGQGTRLDIK
modifications: IgG constant regions; Synthetically generated peptide
B1 was tested, and the “IC50, tube formation” value (HUVEC; HUVEC, collagen type-I matrix, 0.1 ng/ml to 100 ng/ml tested) was “less than 10 ng/ml”, the “inhibition of tube formation by HUVECs” value (HUVEC; collagen type-I gel) was “potent inhibitor of tube formation by HUVECS even at a concentration of 10 ng/ml” and the binding to platelets (human platelets) was “Only a background number of CD42 positive cells are labeled; also recorded: no significant binding to total platelets, nor to activated platelets”. For the same molecule, the binding to platelets (human platelets; listed as DX-2200) was “did not show significant binding to platelets”.

From patent US20100196361A1, “Method of inhibition of vascular development using an antibody” (DYAX CORP., priority 2003, published 2010)
